Measured values: patent US20100092561A1 (published 2010)
Starred links: 1 amine or outer side, 2 acyl side, 3 side chain; linkers in the order of their positions; H or OH if unused. Non-standard residues stand in square brackets, D forms with d. No end group written: not given here. βMeF(S) = S-β-methyl-L-phenylalanine, (2S,3S)-β-methylphenylalanine, C[C@@H](c1ccccc1)[C@H](N[*:1])C(=O)[*:2]; Phe(3R-Me) = C[C@H](c1ccccc1)[C@H](N)C(=O)O

Target: NK1 receptor (rabbit)
Test: cell-based or functional assay

Row | Binder | biological activity relative to SP (rabbit iris sphincter contraction) | concentration at half maximal contraction (EC50), rabbit iris sphincter muscle [nM]
1 | RPKPQQF[Phe(3R-Me)]GLM (not fully specified (C-terminus); ends and bridges not checked) [8R-(βMeF)SP] | 4 fold enhancement | 0.15
2 | RPKPQQF[βMeF(S)]GLM (not fully specified (C-terminus); ends and bridges not checked) [8S-(βMeF)SP] | 10 fold reduction | 
3 | RPKPQQ[Phe(3R-Me)][Phe(3R-Me)]GLM (not fully specified (C-terminus); ends and bridges not checked) [7R,8R-(βMeF)2SP] | 10 fold reduction | 10
